Reference: the Immune Epitope Database (IEDB)

How the values were obtained:
[1] = target: HLA-C*07:02; test: IEDB peptide-MHC binding, purified MHC/direct/fluorescence; filed as Kd, often an IC50 or EC50 that approximates it; ≥ and ≤ were set here for values at or beyond the usual limits of such assays
[2] = target: HLA-A*31:01; test: IEDB peptide-MHC binding, purified MHC/competitive/fluorescence; filed as Kd, often an IC50 or EC50 that approximates it; ≥ and ≤ were set here for values at or beyond the usual limits of such assays; conditions: source organism: Variola virus
[3] = target: HLA-A*02:01; test: IEDB peptide-MHC binding, purified MHC/direct/fluorescence; filed as Kd, often an IC50 or EC50 that approximates it; ≥ and ≤ were set here for values at or beyond the usual limits of such assays
[4] = target: HLA-A*02:03; test: as above; conditions: source organism: Variola virus
[5] = target: HLA-A*69:01; test: as above
[6] = target: HLA-C*03:03; test: as above
[7] = target: HLA-A*29:02; test: IEDB peptide-MHC binding, purified MHC/competitive/fluorescence; filed as Kd, often an IC50 or EC50 that approximates it; ≥ and ≤ were set here for values at or beyond the usual limits of such assays
[8] = target: HLA-A*24:03; test: as above
[9] = target: HLA-B*51:01; test: as above
[10] = target: HLA-A*02:01; test: as above
[11] = target: HLA-B*39:01; test: as above
[12] = target: HLA-A*02:03; test: as above
[13] = target: HLA-B*18:01; test: as above
[14] = target: HLA-A*03:01; test: as above
[15] = target: HLA-A*02:19; test: as above
[16] = target: HLA-A*23:01; test: as above
[17] = target: HLA-B*46:01; test: as above
[18] = target: HLA-A*02:11; test: as above; conditions: source organism: Bacillus anthracis str. A0488
[19] = target: HLA-B*57:01; test: as above
[20] = target: HLA-B*15:01; test: as above
[21] = target: HLA-A*26:01; test: as above
[22] = target: HLA-B*27:03; test: as above
[23] = target: HLA-A*68:02; test: as above; conditions: source organism: Human immunodeficiency virus 1
[24] = target: HLA-B*45:06; test: as above; conditions: source organism: Influenza A virus (A/Fort Monmouth/1/1947-mouse adapted(H1N1))
[25] = target: HLA-B*83:01; test: as above; conditions: source organism: Influenza A virus (A/Fort Monmouth/1/1947-mouse adapted(H1N1))
[26] = target: HLA-B*15:42; test: as above; conditions: source organism: Influenza A virus (A/Fort Monmouth/1/1947-mouse adapted(H1N1))
[27] = target: HLA-B*18:01; test: IEDB peptide-MHC binding, purified MHC/direct/fluorescence; filed as Kd, often an IC50 or EC50 that approximates it; ≥ and ≤ were set here for values at or beyond the usual limits of such assays; conditions: source organism: Influenza A virus (A/Turkey/MO/24093/99(H1N2))
[28] = target: HLA-B*40:01; test: as above; conditions: source organism: Influenza A virus (A/Turkey/MO/24093/99(H1N2))
[29] = target: HLA-B*44:02; test: as above
[30] = target: HLA-B*15:17; test: IEDB peptide-MHC binding, purified MHC/competitive/fluorescence; filed as Kd, often an IC50 or EC50 that approximates it; ≥ and ≤ were set here for values at or beyond the usual limits of such assays; conditions: source organism: Giardia lamblia ATCC 50803
[31] = target: HLA-A*02:16; test: as above; conditions: source organism: Giardia lamblia ATCC 50803
[32] = target: HLA-B*07:02; test: as above
[33] = target: HLA-B*51:01; test: IEDB peptide-MHC binding, purified MHC/direct/fluorescence; filed as Kd, often an IC50 or EC50 that approximates it; ≥ and ≤ were set here for values at or beyond the usual limits of such assays; conditions: source organism: Baboon gamma-herpesvirus
[34] = target: HLA-B*27:05; test: as above; conditions: source organism: Yersinia pestis
[35] = target: HLA-A*03:01; test: as above; conditions: source organism: Yersinia pestis
[36] = target: HLA-A*01:01; test: as above; conditions: source organism: Yersinia pestis
[37] = target: HLA-B*58:01; test: as above; conditions: source organism: Yersinia pestis
[38] = target: HLA-B*07:02; test: as above; conditions: source organism: Yersinia pestis
[39] = target: HLA-A*11:01; test: as above; conditions: source organism: Yersinia pestis
[40] = target: HLA-B*08:01; test: as above; conditions: source organism: Yersinia pestis
[41] = target: HLA-B*15:01; test: as above; conditions: source organism: Yersinia pestis
[42] = target: HLA-B*35:01; test: as above; conditions: source organism: Yersinia pestis
[43] = target: HLA-A*26:01; test: as above; conditions: source organism: Yersinia pestis
[44] = target: HLA-A*31:01; test: as above; conditions: source organism: Yersinia pestis
[45] = source organism: Camelpox virus CMS
[46] = source organism: Bacillus anthracis str. A0488
[47] = source organism: Giardia lamblia ATCC 50803
[48] = source organism: Yersinia pestis

FYYNAFHWA was tested, and the Kd ([1]; source organism: Homo sapiens) was 0.813 µM.

With HMIDKLFYV the Kd [2] was 0.0215 µM, the Kd [3, 45] was at most 0.001 µM and the Kd [4] was at most 0.001 µM. For the same sequence, the Kd [5, 45] was 0.002 µM and the Kd ([6]; source organism: Variola virus) was 0.787 µM.

With KLWASFFQG the Kd [7, 46] was at least 20 µM, the Kd [8, 46] was at least 20 µM and the Kd [9, 46] was at least 20 µM. For the same sequence, the Kd [10, 46] was 0.104 µM, the Kd [11, 46] was at least 20 µM and the Kd [12, 46] was at least 20 µM. It also gave a Kd [13, 46] of at least 20 µM, a Kd [14, 46] of at least 20 µM and a Kd [15, 46] of at least 20 µM. The Kd [16, 46] was at least 20 µM, the Kd [17, 46] was at least 20 µM and the Kd [18] was 0.0025 µM. It also gave a Kd [19, 46] of at least 20 µM, a Kd [20, 46] of at least 20 µM and a Kd [21, 46] of at least 20 µM. It also gave a Kd [22, 46] of at least 20 µM.

In the case of LYNTVAVLY, the Kd [23] is reported as at least 20 µM and the Kd ([1]; source organism: Human immunodeficiency virus 1) is reported as at least 20 µM.

MQIRGFVYF gave a Kd [24] of at least 5 µM, a Kd [25] of at least 5 µM and a Kd [26] of at least 5 µM. The Kd [27] was 0.119 µM, the Kd [28] was at least 20 µM and the Kd ([29]; source organism: Influenza A virus (A/Turkey/MO/24093/99(H1N2))) was at least 20 µM. For the same sequence, the Kd ([1]; source organism: Influenza A virus (A/Fort Monmouth/1/1947-mouse adapted(H1N1))) was at least 20 µM.

NAMGADYYA showed a Kd [7, 47] of 0.869 µM, a Kd [8, 47] of at least 20 µM and a Kd [9, 47] of at least 20 µM. The Kd [10, 47] was at least 20 µM, the Kd [11, 47] was at least 20 µM and the Kd [12, 47] was at least 20 µM. It also gave a Kd [13, 47] of at least 20 µM, a Kd [30] of at least 20 µM and a Kd [14, 47] of at least 20 µM. It also gave a Kd [15, 47] of 0.0151 µM, a Kd [16, 47] of at least 20 µM and a Kd [17, 47] of at least 20 µM. For the same sequence, the Kd [31] was at least 20 µM, the Kd [19, 47] was at least 20 µM and the Kd [20, 47] was at least 20 µM. It also gave a Kd [21, 47] of at least 20 µM and a Kd [22, 47] of at least 20 µM.

For PPKYTPRPA, the Kd ([32]; source organism: Escherichia coli 536) was at least 20 µM.

Work on VPGSETMCY yielded a Kd ([32]; source organism: human gammaherpesvirus 4) of at least 20 µM and a Kd [33] of at least 20 µM.

With YGIPFPGSL the Kd [3, 48] was 14.3 µM, the Kd [34] was at least 20 µM and the Kd [35] was at least 20 µM. For the same sequence, the Kd [36] was at least 20 µM, the Kd [37] was at least 20 µM and the Kd [5, 48] was at least 20 µM. For the same sequence, the Kd [38] was 9.76 µM, the Kd [39] was at least 20 µM and the Kd [40] was at least 20 µM. The Kd [29, 48] was at least 20 µM, the Kd ([6]; source organism: Yersinia pestis Nepal516) was at most 0.001 µM and the Kd [41] was at least 20 µM. The Kd [42] was 0.12 µM, the Kd [43] was at least 20 µM and the Kd [44] was at least 20 µM.
